According to patent US7560245B2, “Luciferase and methods for measuring intracellular ATP using the same” (Kikkoman Corporation, priority 1997, dated 2009):
Where a chain is given by its changes, count along the chain named. Values joined by “and” are separate entries in the source; they are usually repeats but may differ in a detail not shown here. Equal entries are not always repeated.

B1: HIK: Polypeptide of SEQ ID NO:6; HEIKE firefly luciferase with Ala217 substituted by Ile and Glu490 by Lys (protein, listed as Luciola lateralis)
chain: MENMENDENIVYGPEPFYPIEEGSAGAQLRKYMDRYAKLGAIAFTNALTGVDYTYAEYLEKSCCLGEALKNYGLVVDGRIALCSENCEEFFIPVLAGLFIGVGVAPTNEIYTLRELVHSLGISKPTIVFSSKKGLDKVITVQKTVTAIKTIVILDSKVDYRGYQSMDNFIKKNTPQGFKGSSFKTVEVNRKEQVALIMNSSGSTGLPKGVQLTHENIVTRFSHARDPIYGNQVSPGTAILTVVPFHHGFGMFTTLGYLTCGFRIVMLTKFDEETFLKTLQDYKCSSVILVPTLFAILNRSELLDKYDLSNLVEIASGGAPLSKEIGEAVARRFNLPGVRQGYGLTETTSAIIITPEGDDKPGASGKVVPLFKAKVIDLDTKKTLGPNRRGEVCVKGPMLMKGYVDNPEATREIIDEEGWLHTGDIGYYDEEKHFFIVDRLKSLIKYKGYQVPPAELESVLLQHPNIFDAGVAGVPDPIAGELPGAVVVLKKGKSMTEKEVMDYVASQVSNAKRLRGGVRFVDEVPKGLTGKIDGKAIREILKKPVAKM
B2: HLK: Polypeptide of SEQ ID NO:4; HEIKE firefly luciferase with Ala217 substituted by Leu and Glu490 by Lys (protein, listed as Luciola lateralis)
chain: B1 chain with I217L

Assays:
[1] = Comparison of emission rate (remaining activity) with 0.4% benzalkonium chloride; format: biochemical; settings: emission with 0.4% benzalkonium chloride divided by control (25 mM Tricine)
Method: (§1) Enzyme samples were obtained by preparing luciferase samples derived from various firefly species using enzyme-diluted solution (1 mM EDTA, 1 mM 2-mercaptoethanol, 5% glycerol, 50 mM HEPES, (pH7.5)) to achieve 0.5 MLU/ml concentration.
(§2) 50 μl of 0.4% benzalkonium chloride (25 mM Tricine at pH 7.75) and then 50 μl of the enzyme sample were added to 100 μl of substrate solution (4 mM ATP, 0.4 mM luciferin, 10 mM magnesium sulfate, 50 mM HEPES (pH 7.5)). After the solution was stirred for 5 seconds, the light emission was measured every second using Berthold Lumat LB-9501 for 1 minute.
The influence of the enzyme solution, substrate solution and benzalkonium chloride used when measuring change with time, on the measurement values taken under actual emission measurement conditions, was examined.
In addition, the emission rate (remaining activity) was calculated by dividing the light emission measured in the presence of 0.4% benzalkonium chloride by a control value. Here the control value was the light emission upon use of 25 mM Tricine at pH 7.75 instead of 0.4% benzalkonium chloride.

E. faecalis ATCC 29212 = experiment: Detection of intracellular ATP, 0.25% BAC extraction reagent; format: cell-based, Enterococcus faecalis; settings: for Relative ratio (%): TCA extraction method = 100%
Method: (§3) A standard technique used herein was TCA extraction method wherein intracellular ATP is extracted using trichloroacetic acid (TCA) and the amount of ATP extracted is measured using luciferin-luciferase luminescence reaction. TCA extraction method is excellent in extraction efficiency. Further in TCA extraction method no inhibition of luminescence reaction is caused by TCA because emission is measured after the sample containing TCA is diluted 1:100. Because of this dilution, however, TCA extraction method is complicated and can cause a decrease in the measuring sensitivity. Benzalkonium chloride (BAC, Japanese Pharmacopoeia) was used. ATP extraction reagent was prepared by dissolving this surfactant at 0.25% concentration into 25 mM Tricine (pH 7.75). Four strains, Escherichia coli (ATCC 25922), Staphylococcus aureus (ATCC 25923), Pseudomonas aeruginosa (ATCC 27853) and Enterococcus faecalis (ATCC 29212) were used. In standard techniques, a sample, undiluted solution, was prepared by culturing the prescribed microorganisms on a normal broth medium (produced by Eiken chemical Co., Ltd.) at 35° C. overnight. In the method of the present invention, a sample diluted solution was prepared by diluting an undiluted solution of the culture fluid to 1:100 with sterile water. Luminescence reagent was prepared by adding various luciferase to solution containing 0.15 mM luciferin, 6 mM EDTA, 15 mM magnesium acetate, 0.2 mM dithiothreitol, 0.5% BSA and 25 mM HEPES (pH 7.75). The amount of luciferase to be added was prepared such that the light emission produced when 100 μl of 2×10^−8 M ATP standard solution was added to 100 μl of the luminescence reagent would be the same amount of the light emission produced when a luminescence reagent attached to Luciferase LU (Kikkoman Corporation) was used. ATP extraction reagent 100 μl was added to 100 μl of a sample. The solution was allowed to stand for 20 seconds at room temperature. Then 100 μl of the luminescence reagent was added to this solution. Immediately after addition, the light emission was measured using Lumat LB-9501 produced by Berthold. 10% trichloro acetate solution 100 μl was added to 100 μl of a sample and the solution was allowed to stand for 1 minute. 25 mM Tricine (pH 7.75) 9.8 ml was added to this extract, and then the extract was well stirred. 25 mM Tricine (pH 7.75) and 100 μl of a luminescence reagent attached to CheckLite LU (produced by Kikkoman Corporation) were added to 100 µl of the sample. Immediately after addition, the light emission was measured using Lumat LB-9501 produced by Berthold. The relative ratio of the light emissions obtained by the use of the luminescence reagents using various luciferase types is also shown in these tables. Here the light emission obtained by the standard technique (TCA extraction method) was defined as 100%.

[2] = system: Escherichia coli, Staphylococcus aureus, Pseudomonas aeruginosa and Enterococcus faecalis; experiment: Detection of intracellular ATP, summary over the four strains; format: cell-based; settings: 0.25% BAC extraction reagent
Method: as §3, with “In standard techniques, a sample, undiluted solution, was prepared by culturing the prescribed microorganisms on a normal broth medium (produced by Eiken chemical Co., Ltd.) at 35° C. overnight. In the method of the present invention, a sample diluted solution was prepared by diluting an undiluted solution of the culture fluid to 1:100 with sterile water.” left out, “ATP extraction reagent 100 μl was added to 100 μl of a sample. The solution was allowed to stand for 20 seconds at room temperature.” left out, “10% trichloro acetate solution 100 μl was added to 100 μl of a sample and the solution was allowed to stand for 1 minute. 25 mM Tricine (pH 7.75) 9.8 ml was added to this extract, and then the extract was well stirred.” left out, “Here the light emission obtained by the standard technique (TCA extraction method) was defined as 100%.” left out

[3] = Comparison of emission rate (remaining activity) with 0.4% benzalkonium chloride; format: biochemical; settings: for Light emission (RLU) Without extraction reagent: 25 mM Tricine pH 7.75 instead of 0.4% benzalkonium chloride; for Light emission (RLU) Without extraction reagent / Light emission (RLU) With extraction reagent: 5 seconds waiting, 3 seconds measuring; for Light emission (RLU) With extraction reagent: 0.4% benzalkonium chloride
S. aureus ATCC 25923 = experiment: Detection of intracellular ATP, 0.25% BAC extraction reagent; format: cell-based, Staphylococcus aureus; settings: for Relative ratio (%): TCA extraction method = 100%
Method: as §3

[4] = Surfactant resistance: change of light emission with time, 0.4% benzalkonium chloride; format: biochemical; settings: for decay of light emission with time: FIG. 2 and 3
Method: as §1, §2
Along the vertical axis in this figure, the relative ratio of the light emission was plotted with the initial amount of light emitted considered to be 100% upon use of 25 mM Tricine (pH 7.75) instead of 0.4% benzalkonium chloride.
(§4) To compare surfactant resistance of mutant luciferase with that of known luciferase, changes in emission with time were measured according to the aforementioned methods of measuring surfactant resistance.

P. aeruginosa ATCC 27853 = experiment: Detection of intracellular ATP, 0.25% BAC extraction reagent; format: cell-based, Pseudomonas aeruginosa; settings: for Relative ratio (%): TCA extraction method = 100%
Method: as §3

E. coli ATCC 25922 = experiment: as above; format: cell-based, Escherichia coli; settings: for Relative ratio (%): TCA extraction method = 100%
Method: as §3

[5] = Comparison of IC50: benzalkonium chloride concentration inactivating luciferase by 50%; format: biochemical; settings: 10 minutes contact at room temperature, 0.01 to 0.1% benzalkonium chloride
Method: Benzalkonium chloride and various luciferases were contacted with each other for 10 minutes. Then the benzalkonium chloride concentration (IC50), at which activity is inactivated by 50% was determined. Equal amounts of luciferase solution prepared at this concentration and 0.01 to 0.1% benzalkonium chloride were mixed, and then allowed to stand for 10 minutes at room temperature. Subsequently, 100 μl of substrate solution was added to the mixture. Immediately after addition, the light emission was measured using Berthold Lumat LB-9501.

[6] = Surfactant resistance: change of light emission with time, 0.8% benzethonium chloride; format: biochemical; settings: FIG. 4
Method: as §1
[…] After the solution was stirred for 5 seconds, the light emission was measured every second using Berthold Lumat LB-9501 for 1 minute.
as §4

Molecule	Emission rate (remaining activity) [1]	Measured value (RLU) (E. faecalis ATCC 29212)	Relative ratio (%) (E. faecalis ATCC 29212)	emission of the luminescence reagent [2]	Light emission (RLU) Without extraction reagent [3] [RLU]	Light emission (RLU) With extraction reagent [3] [RLU]	luciferase activity (remaining) ([3]; in the presence of 0.1% benzalkonium chloride)	Measured value (RLU) (S. aureus ATCC 25923)	Relative ratio (%) (S. aureus ATCC 25923)	initial light emission ([4]; FIG. 2)	decay of light emission with time [4]	Measured value (RLU) (P. aeruginosa ATCC 27853)	Relative ratio (%) (P. aeruginosa ATCC 27853)	Measured value (RLU) (E. coli ATCC 25922)	Relative ratio (%) (E. coli ATCC 25922)	IC50 (benzalkonium chloride concentration at which activity is inactivated by 50%) [5] [%]	decay of light emission with time [6]	improvement of initial light emission ([4]; compared with HEIKE L mutant, FIG. 3)
North American firefly: luciferase derived from North American firefly, a commercial product (Sigma, L-9506) [reference compound]	21.6%	113	(0.1) %	No emission was observed	452563	97790	about 20%	163	(0.1) %	low in the initial light emission	decayed rapidly	553	(0.3) %	153	(0.1) %	0.014		
B1	89.3%	7914	(63.7) %	more intense than that from wild-type HEIKE luciferase and thermostable luciferase	386429	345159		76533	(58.8) %		decayed more slowly than that of the HEIKE I mutant	131134	(78.0) %	97073	(73.1) %	0.032	more slowly than that of HEIKE I mutant	
B2	101.7% and ~100%	7998	(64.4) %	more intense than that from wild-type HEIKE luciferase and thermostable luciferase	390289	396764		72182	(55.4) %		slower decay in the light emission	131815	(78.4) %	87981	(66.3) %	0.035	slower decay in light emission than that of HEIKE L mutant	about 20%
